Test results reported in patent publication US10702592B2, “Peptides and combination of peptides for use in immunotherapy against NHL and other cancers” (Immatics Biotechnologies GmbH, priority 2016, dated 2020).

What follows are substances tested against HLA-A*02:01 (Homo sapiens, UniProt P04439, D140Y/D185E/D98H/E176V/E277Q/G131W/G231S/I119V/I121R/I166T/I218V/L300P/L318F/N151K/N90K/P208A/P217A/Q86G/Q94H/R138H/R169H/T345S) (assay: MHC binding assay (UV-ligand exchange, beta2m ELISA)). Details: binding to HLA-A*02:01, UV-ligand exchange.
Text: Candidate peptides for T cell based therapies according to the present invention were further tested for their MHC binding capacity (affinity). The individual peptide-MHC complexes were produced by UV-ligand exchange, where a UV-sensitive peptide is cleaved upon UV-irradiation, and exchanged with the peptide of interest as analyzed. Only peptide candidates that can effectively bind and stabilize the peptide-receptive MHC molecules prevent dissociation of the MHC complexes. To determine the yield of the exchange reaction, an ELISA was performed based on the detection of the light chain (β2m) of stabilized MHC complexes. The assay was performed as generally described in Rodenko et al. (Rodenko et al., 2006).
96 well MAXISorp plates (NUNC) were coated over night with 2 ug/ml streptavidin in PBS at room temperature, washed 4× and blocked for 1 h at 37° C. in 2% BSA containing blocking buffer. Refolded HLA-A*02:01/MLA-001 monomers served as standards, covering the range of 15-500 ng/ml. Peptide-MHC monomers of the UV-exchange reaction were diluted 100 fold in blocking buffer. Samples were incubated for 1 h at 37° C., washed four times, incubated with 2 ug/ml HRP conjugated anti-β2m for 1 h at 37° C., washed again and detected with TMB solution that is stopped with […]. Absorption was measured at 450 nm. Candidate peptides that show a high exchange yield (preferably higher than 50%, most preferred higher than 75%) are generally preferred for a generation and production of antibodies or fragments thereof, and/or T cell receptors or fragments thereof, as they show sufficient avidity to the MHC molecules and prevent dissociation of the MHC complexes.

Substance	Peptide exchange (MHC class I binding score, peptide exchange yield)
108 (YLAPENGYLM; listed as Homo sapiens) [compound 108]	“+++” (≥50 = +++)
109 (YLFQFSAAL; listed as Homo sapiens) [compound 109]	“+++” (≥50 = +++)
110 (YQYPFVLGL; listed as Homo sapiens) [compound 110]	“++++” (≥75% = ++++)
111 (YLLDTLLSL; listed as Homo sapiens) [compound 111]	“+++” (≥50 = +++)
112 (FLAILPEEV; listed as Homo sapiens) [compound 112]	“+++” (≥50 = +++)
113 (FVIDSFEEL; listed as Homo sapiens) [compound 113]	“+++” (≥50 = +++)
114 (GLSDISPST; listed as Homo sapiens) [compound 114]	“++” (≥20% = ++)
115 (LLIDIIHFL; listed as Homo sapiens) [compound 115]	“++++” (≥75% = ++++)
116 (SLLDNLLTI; listed as Homo sapiens) [compound 116]	“+++” (≥50 = +++)
117 (VLATILAQL; listed as Homo sapiens) [compound 117]	“++++” (≥75% = ++++)
118 (VLDGMIYAI; listed as Homo sapiens) [compound 118]	“+++” (≥50 = +++)
119 (ELCDIILRV; listed as Homo sapiens) [compound 119]	“+++” (≥50 = +++)
120 (VLLGTTWAL; listed as Homo sapiens) [compound 120]	“+++” (≥50 = +++)
121 (YLTGYNFTL; listed as Homo sapiens) [compound 121]	“+++” (≥50 = +++)
122 (AISEAQESV; listed as Homo sapiens) [compound 122]	“++” (≥20% = ++)
123 (ALLSAFVQL; listed as Homo sapiens) [compound 123]	“+++” (≥50 = +++)
124 (FLGVVVPTV; listed as Homo sapiens) [compound 124]	“+++” (≥50 = +++)
125 (FVAPPTAAV; listed as Homo sapiens) [compound 125]	“+++” (≥50 = +++)
127 (HLMEENMIVYV; listed as Homo sapiens) [compound 127]	“+++” (≥50 = +++)
128 (KLFDASPTFFA; listed as Homo sapiens) [compound 128]	“+++” (≥50 = +++)
129 (SLFEASQQL; listed as Homo sapiens) [compound 129]	“+++” (≥50 = +++)
130 (VIFSYVLGV; listed as Homo sapiens) [compound 130]	“+++” (≥50 = +++)
131 (VLIEETDQL; listed as Homo sapiens) [compound 131]	“++” (≥20% = ++)
132 (VLQDQVDEL; listed as Homo sapiens) [compound 132]	“++” (≥20% = ++)
133 (ALEELTGFREL; listed as Homo sapiens) [compound 133]	“++” (≥20% = ++)
134 (ALGRLGILSV; listed as Homo sapiens) [compound 134]	“+++” (≥50 = +++)
135 (ALTGLQFQL; listed as Homo sapiens) [compound 135]	“+++” (≥50 = +++)
136 (FIFGIVHLL; listed as Homo sapiens) [compound 136]	“+++” (≥50 = +++)
